Key:
[1] = target: HIV-1 NC WT (HIV-1 (NL4-3 isolate)) (UniProt P12493); assay: fluorescence anisotropy; details: FA: 20 mM HEPES pH 7.5, 50 mM NaCl, 10 uM TCEP, 5 mM beta-mercaptoethanol, 1 uM zinc acetate, 20 C, 30 min; 20 nM micro-TAR RNA or 10 nM (TG)4 DNA (Table …)
HIV-1 NC WT = HIV-1 NC WT (HIV-1 (NL4-3 isolate), UniProt P12493 378-432); assay: fluorescence anisotropy; 1 uM zinc acetate; FA: 20 mM HEPES pH 7.5, 50 mM NaCl, 10 uM TCEP, 5 mM beta-mercaptoethanol, 1 uM zinc acetate, 20 C, 30 min; 20 nM micro-TAR RNA or 10 nM (TG)4 DNA (Table 1 footnote: room temperature); details: protein: recombinant; label: 5' carboxyfluorescein (FAM); single strand

Molecule	Kd [1]	Kd (HIV-1 NC WT)
micro-TAR RNA 18-mer	315 nM	–
TGTGTGTG (ssDNA) [(TG)4 DNA]	–	5 ± 1 nM
